We go through 6 variants from IntAct's records for PubMed 20558380.

Sequences and labels used below:
B1: Vang-like protein 2 (Homo sapiens), Q9ULK5 (parent)
chain: MDTESQYSGYSYKSGHSRSSRKHRDRRDRHRSKSRDGGRGDKSVTIQAPGEPLLDNESTRGDERDDNWGETTTVVTGTSEHSISHDDLTRIAKDMEDSVPLDCSRHLGVAAGATLALLSFLTPLAFLLLPPLLWREELEPCGTACEGLFISVAFKLLILLLGSWALFFRRPKASLPRVFVLRALLMVLVFLLVVSYWLFYGVRILDARERSYQGVVQFAVSLVDALLFVHYLAVVLLELRQLQPQFTLKVVRSTDGASRFYNVGHLSIQRVAVWILEKYYHDFPVYNPALLNLPKSVLAKKVSGFKVYSLGEENSTNNSTGQSRAVIAAAARRRDNSHNEYYYEEAEHERRVRKRRARLVVAVEEAFTHIKRLQEEEQKNPREVMDPREAAQAIFASMARAMQKYLRTTKQQPYHTMESILQHLEFCITHDMTPKAFLERYLAAGPTIQYHKERWLAKQWTLVSEEPVTNGLKDGIVFLLKRQDFSLVVSTKKVPFFKLSEEFVDPKSHKFVMRLQSETSV
partner: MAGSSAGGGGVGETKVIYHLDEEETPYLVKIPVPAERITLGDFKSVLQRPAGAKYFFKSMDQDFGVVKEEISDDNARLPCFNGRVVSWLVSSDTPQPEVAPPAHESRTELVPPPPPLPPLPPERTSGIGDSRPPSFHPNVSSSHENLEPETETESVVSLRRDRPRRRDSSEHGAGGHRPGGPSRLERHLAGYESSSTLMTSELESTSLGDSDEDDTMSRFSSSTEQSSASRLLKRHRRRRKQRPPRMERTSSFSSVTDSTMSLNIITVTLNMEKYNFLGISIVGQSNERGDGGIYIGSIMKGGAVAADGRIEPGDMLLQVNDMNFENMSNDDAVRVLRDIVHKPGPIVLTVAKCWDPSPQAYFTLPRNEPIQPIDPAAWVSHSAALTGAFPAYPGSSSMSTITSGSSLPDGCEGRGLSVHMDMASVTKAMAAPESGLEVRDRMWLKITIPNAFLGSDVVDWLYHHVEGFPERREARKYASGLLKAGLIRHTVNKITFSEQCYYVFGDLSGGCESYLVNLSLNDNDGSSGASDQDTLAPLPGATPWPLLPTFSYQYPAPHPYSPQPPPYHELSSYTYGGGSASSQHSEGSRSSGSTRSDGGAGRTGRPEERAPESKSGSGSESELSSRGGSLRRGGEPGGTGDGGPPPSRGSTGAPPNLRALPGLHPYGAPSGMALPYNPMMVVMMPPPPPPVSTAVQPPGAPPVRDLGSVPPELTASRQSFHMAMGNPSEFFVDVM
B2: Vang-like protein 2 (Homo sapiens), Q9ULK5 (parent)
chain: B1 chain
partner: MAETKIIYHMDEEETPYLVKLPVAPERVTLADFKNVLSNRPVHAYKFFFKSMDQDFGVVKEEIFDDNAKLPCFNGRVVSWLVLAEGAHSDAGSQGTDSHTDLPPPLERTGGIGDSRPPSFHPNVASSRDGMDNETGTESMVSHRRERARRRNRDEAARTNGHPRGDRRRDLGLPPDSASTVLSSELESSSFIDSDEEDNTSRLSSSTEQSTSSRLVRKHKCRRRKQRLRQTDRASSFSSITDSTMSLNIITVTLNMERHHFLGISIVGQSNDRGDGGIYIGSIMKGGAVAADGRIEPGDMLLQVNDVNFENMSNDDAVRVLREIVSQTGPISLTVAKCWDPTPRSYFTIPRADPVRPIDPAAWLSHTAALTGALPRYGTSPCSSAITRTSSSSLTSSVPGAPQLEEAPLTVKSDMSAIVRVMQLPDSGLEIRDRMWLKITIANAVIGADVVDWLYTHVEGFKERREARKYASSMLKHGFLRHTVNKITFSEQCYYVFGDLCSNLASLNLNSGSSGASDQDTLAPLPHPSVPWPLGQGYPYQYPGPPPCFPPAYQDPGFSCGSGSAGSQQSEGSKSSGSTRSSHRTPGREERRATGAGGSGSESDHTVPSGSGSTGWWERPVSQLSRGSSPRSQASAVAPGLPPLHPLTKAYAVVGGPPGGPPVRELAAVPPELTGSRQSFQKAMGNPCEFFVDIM

Variants of B1 are the subject of the first assay. The following applies: with dvl2_mouse Dvl2, Q60838.
On to MDTESQYSGYSYKSGHSRSSRKHRDRRDRHRSKSRDGGRGDKSVTIQAPGEPLLDNESTRGDERDDNWGETTTVVTGTSEHSISHDDLTRIAKDMEDSVPLDCSRHLGVAAGATLALLSFLTPLAFLLLPPLLWREELEPCGTACEGLFISVAFKLLILLLGSWALFFRRPKASLPRVFVLRALLMVLVFLLVVSYWLFYGVRILDARERSYQGVVQFAVSLVDALLFVHYLAVVLLELRQLQPQFTLKVVRSTEGASRFYNVGHLSIQRVAVWILEKYYHDFPVYNPALLNLPKSVLAKKVSGFKVYSLGEENSTNNSTGQSRAVIAAAARRRDNSHNEYYYEEAEHERRVRKRRARLVVAVEEAFTHIKRLQEEEQKNPREVMDPREAAQAIFASMARAMQKYLRTTKQQPYHTMESILQHLEFCITHDMTPKAFLERYLAAGPTIQYHKERWLAKQWTLVSEEPVTNGLKDGIVFLLKRQDFSLVVSTKKVPFFKLSEEFVDPKSHKFVMRLQSETSV [D255E], for which the “effect of a mutation on the interaction” value is “disrupting interaction”.

Turning to MDTESQYSGYSYKSGHSRSSRKHRDRRDRHRSKSRDGGRGDKSVTIQAPGEPLLDNESTRGDERDDNWGETTTVVTGTSEHSISHDDLTRIAKDMEDSVPLDCSRHLGVAAGATLALLSFLTPLAFLLLPPLLWREELEPCGTACEGLFISVAFKLLILLLGSWALFFRRPKASLPRVFVLRALLMVLVFLLVVSYWLFYGVRILDARERSYQGVVQFAVSLVDALLFVHYLAVVLLELRQLQPQFTLKVVRSTDGASRFYNVGHLSIQRVAVWILEKYYHDFPVYNPALLNLPKSVLAKKVSGFKVYSLGEENSTNNSTGQSRAVIAAAARRRDNSHNEYYYEEAEHERRVCKRRARLVVAVEEAFTHIKRLQEEEQKNPREVMDPREAAQAIFASMARAMQKYLRTTKQQPYHTMESILQHLEFCITHDMTPKAFLERYLAAGPTIQYHKERWLAKQWTLVSEEPVTNGLKDGIVFLLKRQDFSLVVSTKKVPFFKLSEEFVDPKSHKFVMRLQSETSV [R353C], the “effect of a mutation on the interaction” value is listed as “decreasing interaction”.

In a further assay the parent is B2. The following applies: with dvl1_mouse Dvl1, P51141.
Turning to MDTESQYSGYSYKSGHSRSSRKHRDRRDRHRSKSRDGGRGDKSVTIQAPGEPLLDNESTRGDERDDNWGETTTVVTGTSEHSISHDDLTRIAKDMEDSVPLDCSRHLGVAAGATLALLSFLTPLAFLLLPPLLWREELEPCGTACEGLFISVAFKLLILLLGSWALFFRRPKASLPRVFVLRALLMVLVFLLVVSYWLFYGVRILDARERSYQGVVQFAVSLVDALLFVHYLAVVLLELRQLQPQFTLKVVRSTDGASRFYNVGHLSIQRVAVWILEKYYHDFPVYNPALLNLPKSVLAKKVSGFKVYSLGEENSTNNSTGQSRAVIAAAARRRDNSHNEYYYEEAEHERRVRKRRARLVVAVEEAFTHIKRLQEEEQKNPREVMDPREAAQAIFASMARAMQKYLRTTKQQPYHTMESILQHLEFCITHDMTPKAFLERYLAAGPTIQYHKERWLAKQWTLVNEEPVTNGLKDGIVFLLKRQDFSLVVSTKKVPFFKLSEEFVDPKSHKFVMRLQSETSV [S464N], the “effect of a mutation on the interaction” value is listed as “disrupting interaction”.

Consider MDTESQYSGYSYKSGHSRSSRKHRDRRDRHRSKSRDGGRGDKSVTIQAPGEPLLDNESTRGDERDDNWGETTTVVTGTSEHSISHDDLTRIAKDMEDSVPLDCSRHLGVAAGATLALLSFLTPLAFLLLPPLLWREELEPCGTACEGLFISVAFKLLILLLGSWALFFRRPKASLPRVFVLRALLMVLVFLLVVSYWLFYGVRILDARERSYQGVVQFAVSLVDALLFVHYLAVVLLELRQLQPQFTLKVVRSTDGASRFYNVGHLSIQRVAVWILEKYYHDFPVYNPALLNLPKSVLAKKVSGFKVYSLGEENSTNNSTGQSRAVIAAAARRRDNSHNEYYYEEAEHERRVCKRRARLVVAVEEAFTHIKRLQEEEQKNPREVMDPREAAQAIFASMARAMQKYLRTTKQQPYHTMESILQHLEFCITHDMTPKAFLERYLAAGPTIQYHKERWLAKQWTLVSEEPVTNGLKDGIVFLLKRQDFSLVVSTKKVPFFKLSEEFVDPKSHKFVMRLQSETSV [R353C], for which the “effect of a mutation on the interaction” value is “decreasing interaction”. On the same count and under the same terms, to MDTESQYSGYSYKSGHSRSSRKHRDRRDRHRSKSRDGGRGDKSVTIQAPGEPLLDNESTRGDERDDNWGETTTVVTGTSEHSISHDDLTRIAKDMEDSVPLDCSRHLGVAAGATLALLSFLTPLAFLLLPPLLWREELEPCGTACEGLFISVAFKLLILLLGSWALFFRRPKASLPRVFVLRALLMVLVFLLVVSYWLFYGVRILDARERSYQGVVQFAVSLVDALLFVHYLAVVLLELRQLQPQFTLKVVRSTDGASRFYNVGHLSIQRVAVWILEKYYHDFPVYNPALLNLPKSVLAKKVSGFKVYSLGEENSTNNSTGQSRAVIAAAARRRDNSHNEYYYEEAEHERRVRKRRARLVVAVEEAFTHIKRLQEEEQKNPREVMDPREAAQAIFASMARAMQKYLRTTKQQPYHTMESILQHLEFCITHDMTPKASLERYLAAGPTIQYHKERWLAKQWTLVSEEPVTNGLKDGIVFLLKRQDFSLVVSTKKVPFFKLSEEFVDPKSHKFVMRLQSETSV [F437S] belongs “disrupting interaction”. On the same count and under the same terms, to MDTESQYSGYSYKSGHSRSSRKHRDRRDRHRSKSRDGGRGDKSVTIQAPGEPLLDNESTRGDERDDNWGETTTVVTGTSEHSISHDDLTRIAKDMEDSVPLDCSRHLGVAAGATLALLSFLTPLAFLLLPPLLWREELEPCGTACEGLFISVAFKLLILLLGSWALFFRRPKASLPRVFVLRALLMVLVFLLVVSYWLFYGVRILDARERSYQGVVQFAVSLVDALLFVHYLAVVLLELRQLQPQFTLKVVRSTEGASRFYNVGHLSIQRVAVWILEKYYHDFPVYNPALLNLPKSVLAKKVSGFKVYSLGEENSTNNSTGQSRAVIAAAARRRDNSHNEYYYEEAEHERRVRKRRARLVVAVEEAFTHIKRLQEEEQKNPREVMDPREAAQAIFASMARAMQKYLRTTKQQPYHTMESILQHLEFCITHDMTPKAFLERYLAAGPTIQYHKERWLAKQWTLVSEEPVTNGLKDGIVFLLKRQDFSLVVSTKKVPFFKLSEEFVDPKSHKFVMRLQSETSV [D255E] belongs “disrupting interaction”.
